Results from IntAct's records for PubMed 29039417.

B1: BBSome complex member BBS1 (Homo sapiens), Q8NFJ9 (parent)
chain: MAAASSSDSDACGAESNEANSKWLDAHYDPMANIHTFSACLALADLHGDGEYKLVVGDLGPGGQQPRLKVLKGPLVMTESPLPALPAAAATFLMEQHEPRTPALALASGPCVYVYKNLRPYFKFSLPQLPPNPLEQDLWNQAKEDRIDPLTLKEMLESIRETAEEPLSIQSLRFLQLELSEMEAFVNQHKSNSIKRQTVITTMTTLKKNLADEDAVSCLVLGTENKELLVLDPEAFTILAKMSLPSVPVFLEVSGQFDVEFRLAAACRNGNIYILRRDSKHPKYCIELSAQPVGLIRVHKVLVVGSTQDSLHGFTHKGKKLWTVQMPAAILTMNLLEQHSRGLQAVMAGLANGEVRIYRDKALLNVIHTPDAVTSLCFGRYGREDNTLIMTTRGGGLIIKILKRTAVFVEGGSEVGPPPAQAMKLNVPRKTRLYVDQTLREREAGTAMHRAFQTDLYLLRLRAARAYLQALESSLSPLSTTAREPLKLHAVVQGLGPTFKLTLHLQNTSTTRPVLGLLVCFLYNEALYSLPRAFFKVPLLVPGLNYPLETFVESLSNKGISDIIKVLVLREGQSAPLLSAHVNMPGSEGLAAA
partner: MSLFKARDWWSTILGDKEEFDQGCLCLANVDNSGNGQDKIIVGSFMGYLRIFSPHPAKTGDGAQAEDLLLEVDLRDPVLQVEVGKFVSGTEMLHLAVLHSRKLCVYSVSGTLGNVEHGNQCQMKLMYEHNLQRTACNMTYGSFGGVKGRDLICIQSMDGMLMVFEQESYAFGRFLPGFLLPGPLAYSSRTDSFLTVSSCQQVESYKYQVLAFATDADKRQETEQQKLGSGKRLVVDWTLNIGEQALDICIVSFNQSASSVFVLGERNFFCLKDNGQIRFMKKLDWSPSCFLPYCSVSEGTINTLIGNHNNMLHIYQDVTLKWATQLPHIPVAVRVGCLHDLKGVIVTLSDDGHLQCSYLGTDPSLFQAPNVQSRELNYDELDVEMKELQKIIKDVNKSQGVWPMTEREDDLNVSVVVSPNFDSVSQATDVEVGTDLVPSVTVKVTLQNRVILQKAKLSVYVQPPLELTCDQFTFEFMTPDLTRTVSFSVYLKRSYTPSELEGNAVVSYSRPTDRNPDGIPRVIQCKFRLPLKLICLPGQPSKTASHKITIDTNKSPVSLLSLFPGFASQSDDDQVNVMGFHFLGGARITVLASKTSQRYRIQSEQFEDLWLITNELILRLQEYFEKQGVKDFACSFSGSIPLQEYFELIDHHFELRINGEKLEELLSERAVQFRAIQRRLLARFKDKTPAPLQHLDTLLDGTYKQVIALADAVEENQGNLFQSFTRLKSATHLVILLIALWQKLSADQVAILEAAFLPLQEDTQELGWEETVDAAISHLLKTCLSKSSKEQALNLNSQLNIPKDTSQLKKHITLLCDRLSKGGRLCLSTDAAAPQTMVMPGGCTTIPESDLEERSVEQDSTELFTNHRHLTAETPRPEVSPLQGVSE

Variants of: B1
Conditions: with pthb1_human BBS9, Q3SYG4

Effect of a mutation on the interaction, with no effect:
MAAASSSDSDACGAESNEANSKWLDAHYDPMANIHTFSACLALADLHGDGEYKLVVGDLGPGGQQPRLKVLKGPLVMTESPLPALPAAAATFLMEQHEPRTPALALASGPCVYVYKNLRPYFKFSLPQLPPNPLEQDLWNQAKEDRIDPLTLKEMLESIRETAEEPLSIQSLRFLQLELSEMEAFVNQHKSNSIKRQTVITTMTTLKKNLADEDAVSCLVLGTENKELLVLDPEAFTILAKMSLPSVPVFLEVSGQFDVEFRLAAACRNGNIYILRRDSKHPKYCIELSAQPVGLIRVHKVLVVGSTQDSLHGFTHKGKKLWTVQMPAAILTMNLLEQHSRGLQAVMAGLANGEVRIYRDKALLNVIHTPDAVTSLCFGRYGREDNTLIMTTRGGGLIIKILKRTAVFVEGGSEVGPPPAQAMKLNVPRKTRLYVDQTLREREAGTAMHRAFQTDLYLLRLRAARAYLQALESSLSPLSTTAREPLKLHAVVQGLGPTFKLTLHLQNTSTTRPVLGLLVCFLYNEALYSLPRAFFKVPLLVPGLNYPLETFVESLSNKGISDIIAVLVLREGQSAPLLSAHVNMPGSEGLAAA [K565A]
MAAASSSDSDACGAESNEANSKWLDAHYDPMANIHTFSACLALADLHGDGEYKLVVGDLGPGGQQPRLKVLKGPLVMTESPLPALPAAAATFLMEQHEPRTPALALASGPCVYVYKNLRPYFKFSLPQLPPNPLEQDLWNQAKEDRIDPLTLKEMLESIRETAEEPLSIQSLRFLQLELSEMEAFVNQHKSNSIKRQTVITTMTTLKKNLADEDAVSCLVLGTENKELLVLDPEAFTILAKMSLPSVPVFLEVSGQFDVEFRLAAACRNGNIYILRRDSKHPKYCIELSAQPVGLIRVHKVLVVGSTQDSLHGFTHKGKKLWTVQMPAAILTMNLLEQHSRGLQAVMAGLANGEVRIYRDKALLNVIHTPDAVTSLCFGRYGREDNTLIMTTRGGGLIIKILKRTAVFVEGGSEVGPPPAQAMKLNVPRKTRLYVDQTLREREAGTAMHRAFQTDLYLLRLRAARAYLQALESSLSPLSTTAREPLKLHAVVQGLGPTFKLTLHLQNTSTTRPVLGLLVCFLYNEALYSLPRAFFKVPLLVPGLNYPLETFVESLSNKGISDIIEVLVLREGQSAPLLSAHVNMPGSEGLAAA [K565E]
MAAASSSDSDACGAESNEANSKWLDAHYDPMANIHTFSACLALADLHGDGEYKLVVGDLGPGGQQPRLKVLKGPLVMTESPLPALPAAAATFLMEQHEPRTPALALASGPCVYVYKNLRPYFKFSLPQLPPNPLEQDLWNQAKEDRIDPLTLKEMLESIRETAEEPLSIQSLRFLQLELSEMEAFVNQHKSNSIKRQTVITTMTTLKKNLADEDAVSCLVLGTENKELLVLDPEAFTILAKMSLPSVPVFLEVSGQFDVEFRLAAACRNGNIYILRRDSKHPKYCIELSAQPVGLIRVHKVLVVGSTQDSLHGFTHKGKKLWTVQMPAAILTMNLLEQHSRGLQAVMAGLANGEVRIYRDKALLNVIHTPDAVTSLCFGRYGREDNTLIMTTRGGGLIIKILKRTAVFVEGGSEVGPPPAQAMKLNVPRKTRLYVDQTLREREAGTAMHRAFQTDLYLLRLRAARAYLQALESSLSPLSTTAREPLKLHAVVQGLGPTFKLTLHLQNTSTTRPVLGLLVCFLYNEALYSLPRAFFKVPLLVPGLNYPLETFVESLSNKGISDAIKVLVLREGQSAPLLSAHVNMPGSEGLAAA [I563A]
MAAASSSDSDACGAESNEANSKWLDAHYDPMANIHTFSACLALADLHGDGEYKLVVGDLGPGGQQPRLKVLKGPLVMTESPLPALPAAAATFLMEQHEPRTPALALASGPCVYVYKNLRPYFKFSLPQLPPNPLEQDLWNQAKEDRIDPLTLKEMLESIRETAEEPLSIQSLRFLQLELSEMEAFVNQHKSNSIKRQTVITTMTTLKKNLADEDAVSCLVLGTENKELLVLDPEAFTILAKMSLPSVPVFLEVSGQFDVEFRLAAACRNGNIYILRRDSKHPKYCIELSAQPVGLIRVHKVLVVGSTQDSLHGFTHKGKKLWTVQMPAAILTMNLLEQHSRGLQAVMAGLANGEVRIYRDKALLNVIHTPDAVTSLCFGRYGREDNTLIMTTRGGGLIIKILKRTAVFVEGGSEVGPPPAQAMKLNVPRKTRLYVDQTLREREAGTAMHRAFQTDLYLLRLRAARAYLQALESSLSPLSTTAREPLKLHAVVQGLGPTFKLTLHLQNTSTTRPVLGLLVCFLYNEALYSLPRAFFKVPLLVPGLNYPLETFVESLSNKGISDEIKVLVLREGQSAPLLSAHVNMPGSEGLAAA [I563E]
MAAASSSDSDACGAESNEANSKWLDAHYDPMANIHTFSACLALADLHGDGEYKLVVGDLGPGGQQPRLKVLKGPLVMTESPLPALPAAAATFLMEQHEPRTPALALASGPCVYVYKNLRPYFKFSLPQLPPNPLEQDLWNQAKEDRIDPLTLKEMLESIRETAEEPLSIQSLRFLQLELSEMEAFVNQHKSNSIKRQTVITTMTTLKKNLADEDAVSCLVLGTENKELLVLDPEAFTILAKMSLPSVPVFLEVSGQFDVEFRLAAACRNGNIYILRRDSKHPKYCIELSAQPVGLIRVHKVLVVGSTQDSLHGFTHKGKKLWTVQMPAAILTMNLLEQHSRGLQAVMAGLANGEVRIYRDKALLNVIHTPDAVTSLCFGRYGREDNTLIMTTRGGGLIIKILKRTAVFVEGGSEVGPPPAQAMKLNVPRKTRLYVDQTLREREAGTAMHRAFQTDLYLLRLRAARAYLQALESSLSPLSTTAREPLKLHAVVQGLGPTFKLTLHLQNTSTTRPVLGLLVCFLYNEALYSLPRAFFKVPLLVPGLNYPLETFVESLSNKGISDKIKVLVLREGQSAPLLSAHVNMPGSEGLAAA [I563K]
